Data: paper doi:10.1101/2021.06.01.446150

Legend:
[1] = molecular target: human ghrelin O-acyltransferase (hGOAT), FLAG-tagged, wild type (human) (UniProt Q96T53)
[2] = molecular target: endogenous hGOAT of prostate cancer cells (human (endogenous in 22Rv1 and LNCaP)) (UniProt Q96T53); assay: confocal imaging of fluorescent ligand binding and uptake by cells

## H-GS-Dap-Nal-1-LSPTK(SulfoCy5)-NH2 (ligand 15) (peptide)
[1]
  inhibition of hGOAT activity by ligand 15: 17 nM
[2]
  percent of cells exhibiting ligand binding: 100%
